Assay: soluble on expression in E. coli; label from the status in PepcDB or PDB records

Sequence	soluble on expression in E. coli
MSLGARELHAHLKGGAATVCRCWAVTRRDGTVFGFTDHDRDLTFEGRLFRAETGLTSSALQQTTGLSVDNAETVGALSHVSVTEADLLAGRFDGAEVLAWLVNWADVSERLLQFRGTLGEITHSGGRFRAELRGLTEALNQPQGRVYQRSCQAVLGDRACGFDLSAEEFATERAVETVVGRQSFSFEGLHSFPDRWFEQGRLVVMTGEAAGAMGVIKSDRRRGEVRTVELWEALGPQITVGDRVRLEAGCDRMAETCRLKFNNLRNFRGFPHLSGEDWLSAYPAATGTHDGGSLWEEGHHHHHH	soluble
MHRNYFKKKQNLIFSEKQQSVEKYGDDWVHHFHTANARETFGKKIFGIFFPRNLSIERTRETPTAKEGDLLHNGNY	not soluble
MGSDKIHHHHHHMPRPRRTQISLEDTPYYHCCSRVVRRAFLCGDDTYSGKNYDHRRTWVESLLFELEAIFAIDVAAFAVMSNHLHLVLRVDIDSANGWTDREVLEQWHKLFKGDELTQKFAKGELVEAYEVSRLKHSIAIYRSRLCDISWFMRCLNEPIARQANQEDNCTGRFWEGRFKSQALLDEAAVLACMTYVDLNPIRAQLADTPEQSDHTSIQLRIRAALKGEQPSNLLPFIANECDNQPNGIAFSLMDYLQLVDDTGRIIRNDKRGYISESSAKILTRLNIPHDNWLKLTTDFGKLFHGPVGTLQELTDYCEHLEKRRRHFAASCQHFKSN	not soluble
MDKMFKRTLLGAAVAMASTGAFAASETGAIGVLSDFNVQAYGVAAISAFYQEDSNGYDYENESRIGFRASKDMFDNVNVFMQIESGYVGEDGKGSTLGARDTFLGLQGDWGKVRFGRMLTPLYEIVDWPYSNPGLGRVFDWGGDVAGHYDRKGDIARYDSPAFGGLTFNISAGRGDVGTKSSNHFGAAAHYNAADIVTFHVGYENNSNFKYDYKTKDTAGKDVDNTFLTDATAYIVGFELPLPAGFGLAGAYKYTEGASKTVKGQEGEQGQYSLIGQYWNGPWGFKVGYAANLESEVNGVEQKDDDEVLSAQLMYVKNGFVPYIRVGQHDAYDSADKKGFVRVGLEYGF	not soluble
MAGSPTCLTLIYILWQLTGSAASGPVKELVGSVGGAVTFPLKSKVKQVDSIVWTFNTTPLVTIQPEGGTIIVTQNRNRERVDFPDGGYSLKLSKLKKNDSGIYYVGIYSSSLQQPSTQEYVLHVYEHLSKPKVTMGLQSNKNGTCVTNLTCCMEHGEEDVIYTWKALGQAANESHNGSILPISWRWGESDMTFICVARNPVSRNFSSPILARKLCEGAADDPDGSGLNDIFEAQKIEWHHHHHHHH	soluble
MSLTIFDNYEVWFVIGSQHLYGPETLRQVTQHAEHVVNALNTEAKLPCKLVLKPLGTTPDEITAICRDANYDDRCAGLVVWLHTFSPAKMWINGLTMLNKPLLQFHTQFNAALPWDSIDMDFMNLNQTAHGGREFGFIGARMRQQHAVVTGHWQDKQAHERIGSWMRQAVSKQDTRHLKVCRFGDNMREVAVTDGDKVAAQIKFGFSVNTWAVGDLVQVVNSISDGDVNALVDEYESCYTMTPATQIHGKKRQNVLEAARIELGMKRFLEQGGFHAFTTTFEDLHGLKQLPGLAVQRLMQQGYGFAGEGDWKTAALLRIMKVMSTGLQGGTSFMEDYTYHFEKGNDLVLGSHMLEVCPSIAAEEKPILDVQHLGIGGKDDPARLIFNTQTGPAIVASLIDLGDRYRLLVNCIDTVKTPHSLPKLPVANALWKAQPDLPTASEAWILAGGAHHTVFSHALNLNDMRQFAEMHDIEITVIDNDTRLPAFKDALRWNEVYYGFRREGHHHHHH	soluble
MSLHEASIALALIDVAGDVLREHGAARASALTVRVGQWSSVVPEALAAAFPACAEGTPLAGARLSIERVPGVGECPQHGPVELEVWRGLRCPLCGAPTPRLLQGDELELDQLELDQLELENLEGHHHHHH	not soluble
MKVAICDDNPTLTEKINTMLFNYNPNIFETYTYYNPLKLVNQLDQENFDFFILDIEMSEMSGIDLAKKIRERDILSPIVFLTSYKEYMEEVFQVQTFDYLLKPPTEDRLHQVLEKLRQQLEKKRNYFVFSSNKVTYKIPTKDIIYFEKDKRQVLIHTVGEIYKPYMSTNQINEQLDTNFVQVHSSFIINCAYIKELGKNFLLMDSKEKCIEIPISRRFKAAAHKSIVMSMRGKI	not soluble
MSSDGEQDEENPILARHRREKKELRGKILAKKKAAKCGNKQMQKEAGAECEKMEKEMDERHKKELEEAKKPEESEAVPAENPEASTLSPPSPNPEGSDNDGEGPSSSAFYKTVKISNKAAKKQDKKKKTADKMKAAEAADKEAGKNQLSDRQMEKAAVKEMLAEDHMKMIDIPADGDCMYNAISHQLQEEGIEISVRKLRKRCGTYMREHSEDFRPFIEDMANMDSDSSWATYLGGVENVAEIGGVWGGELELKACSMIFEKTIVVYKQYGGRHTIGEEYSSPKDRALRVVFLRHAYSLGEHYNSTCPY	soluble
GSHMQTPKETLSERLSALQDKIIDHYENDSKDIDSQIQYWQLIRWENAIFFAAREHGIQTLNHQVVPAYNISKSKAHKAIELQMALQGLAQSAYKTEDWTLQDTCEELWNTEPTHCFKKGGQTVQVYFDGNKDNCMTYVAWDSVYYMTDAGTWDKTATCVSHRGLYYVKEGYNTFYIEFKSECEKYGNTGTWEVHFGNNVIDCNDSMCSTSDDTVSAT	soluble
MELKNKKWTDEEFHKQREEVLQQWPTGKEVDLQEAVDYLKKIPAEKNFAEKLVLAKKKGITMAQPRAGVALLDEHIELLRYLQDEGGADFLPSTIDAYTRQNRYDECENGIKESEKAGRSLLNGFPGVNFGVKGCRKVLEAVNLPLQARHGTPDSRLLAEIIHAGGWTSNEGGGISYNVPYAKNVTIEKSLLDWQYCDRLVGFYEEQGVHINREPFGPLTGTLVPPSMSNAVGITEALLAAEQGVKNITVGYGECGNMIQDIAALRCLEEQTNEYLKAYGYNDVFVTTVFHQWMGGFPQDESKAFGVIVTATTIAALAGATKVIVKTPHEAIGIPTKEANAAGIKATKMALNMLEGQRMPMSKELETEMAVIKAETKCILDKMFELGKGDLAIGTVKAFETGVMDIPFGPSKYNAGKMMPVRDNLGCVRYLEFGNVPFTEEIKNYNRERLQERAKFEGRDVSFQMVIDDIFAVGKGRLIGRPE	soluble
MSIAIKDDDEFKTIFAEKKTQPVILFFTASWCGPCQMIKPRVEELAAEHKDRLSILKIDVDECDGVGEEYEINSMPTFLLIVDGIKKDQFSGANNTKFEEMVKAALQ	not soluble
MQYIKIHALDNVAVALADLAEGTEVSVDNQTVTLRQDVARGHKFALTDIAKGANVIKYGLPIGYALADIAAGEHVHAHNTRTNL	soluble
MEQEFFFPPPKKSDGPVVACVVEKKGDGTRTSMRQNEIYAYSAQIRTGDGCMVMPKIHWNSFEPSDWVSCTLEYVNKANQIKEKEMLEISKVPAENFDRFGMPPTRFENGIVQIKTLFVACPEFIKNRETRNAYGSYKKLFILNIGLGFVSTRRTADGNLAEKVKNGDVYTGIFEFRAKDNGAINFNHRGRVRDETNHVIERDAMWELTKTSSVAATDVQKKQMKEAIEQLRKDAEQFEREFKDSQSRPVAPMLPPNEISENRKEINLGLALPSRHSQPSIRTVDVVTTTPAQMMPTASSFRIPFAQVSKAPVVAPSSQLQQQQQQPCSSNQTARIGNFLERDQVRGNLLGVPLSSSTPRGSPELLRRREVTADDGNITSNTAVMLRDNNANPMNRRRPS	not soluble
MAKIGFIGFGSMASLIATKIIETEVATPEEIILYSNSKNEHFNQFYTKYPTAELADNEAEIFTKADHSFVCKLPLAVLPLMKDCAAVLTPDRHVVSIAAGVSTSDIIEITPGLQVSKLIPSLTTAVNVGTTLIAHAETVNQTNTSWLETTFEHFGHVMTIREENMDIASDLTSSSPGIIAAIFEQFVEAALRRSSLSDAEVFQMINFALAGTSKLLVEEDYTFSGLIQRVATKDGTTAEGVELSKAQLPNFFDELLDRTQNKYASSEKEIQAQKRELLSLEHHHHHH	soluble
MGHHHHHHSHKHPFIVELAYAFQTGGKLYLILECLSGGELFTHLEREGIFLEDTACFYLAEITLALGHLHSQGIIYRDLKPENIMLSSQGHIKLTDFGLCKESIHEGAVTHTFCGTIEYMAPEILVRSGHNRAVDWWSLGALMYDMLTGSPPFTAENRKKTMDKIIRGKLALPPYLTPDARDLVKKFLKRNP	not soluble
MKLKIGIVCYPTVGGSGVVATELGKLLAERGHEIHFISSSMPFRLNKVYGNIYYHEVSVNQYSVFQYPPYDLALASKIAEVAKRERLDVLHAHYAVPHAVCAVLARQMVGELPIITTLHGTDITVLGYDPSLSDMIKFGIEQSDIVTAVSDALARQTYELLDVQATIHTVYNFVDERVYRRREAGHLRREYGIRDDERVVIHVSNFRKVKRVPDVVRAFAIVRRHVPAKLLLVGDGPEMTVVCRLVKELGLQDDVRFLGKQDKLEELYSISDVMMLLSEKESFGLVLLEAMACGVPCIGTAIGGIPEVIEDGKTGFLCPLGDVKEAARQAMALLTDCRLHAEMARQAVQTVERKFRSADIVGQYEQLYASLAARKVKR	not soluble
MNYLEGVGSKKGGGGIASESQFNLQRRKEVESLLSKGENVPYTFQDEKDDQVRSNPYIYKNHSGKLVCKLCNTMHMSWSSVERHLGGKKHGLNVLRRGISIEKSSLGREGQTTHDFRQQQKIIEAKQSLKNNGTIPVCKIATVKNPKNGSVGLAIQVNYSSEVKENSVDSDDKAKVPPLIRIVSGLELSDTKQKGKKFLVIAYEPFENIAIELPPNEILFSENNDMDNNNDGVDELNKKCTFWDAISKLYYVQFFFKQAEQEQADV	soluble
MVAPETERIRTQIRVYLLVEDLQRQFAAYLGTPTRARGYPPYEGEHALIVEVSPALAIERVIDLALRAVPGVQPGILYVERQFGVLEIHSASLDEVRRAGEAILAGTGNRAEDQLRPRVLFHDIITDITDQHAVILNRNRQASMILPGQSLLVYEMTPALFAAVAANEAERVAPGLTVVDVQMIGAAGRLYIGGSTDEVTVARDHITTVLSAIEGQEH	not soluble
MSLPQFSVDLCLFDLDGTIVSTTTAAESAWKKLCRQHGVDPVELFKHSHGARSQEMMKKFFPKLDNTDNKGVLALEKDMADNYLDTVSLIPGAENLLLSLDVDTETQKKLPERKWAIVTSGSPYLAFSWFETILKNVGKPKVFITGFDVKNGKPDPEGYSRARDLLRQDLQLTGKQDLKYVVFEDAPVGIKAGKAMGAITVGITSSYDKSVLFDAGADYVVCDLTQVSVVKNNENGIVIQVNNPLTRDEGHHHHHH	soluble
MGEGTRGEAFKKIREGYKVHIFDESYVSYINKGKGWMKVGGGIKVNPKRKRFAVVGGITISKEGITFSYSTYKKPSLNSKDIILYLRKVIKDEKTVIVMDNARIHGNEVREFLEENGVEFVYLPPYSPDKSPAEGPWAVLKKRLYSKIYTDFETLMWDATRFLRSISKRVNDLTYSVKRCGEPLDVNTE	soluble
MGSDKIHHHHHHMSAIERITKAAHLIDMNDIIREGNPTLRTVAEEVTFPLSDQEIILGEKMMQFLKHSQDPVMAEKMGLRGGVGLAAPQLDISKRIIAVLVPNIVEEGETPQEAYDLEAIMYNPKIVSHSVQDAALGEGEGCLSVDRNVPGYVVRHARVTVDYFDKDGEKHRIKLKGYNSIVVQHEIDHINGIMFYDRINEKDPFAVKDGLLILE	soluble

— the DeepSol protein solubility set
